These results are taken from patent US20150148405A1, “Expression Construct for a Lin28-Resistant Let-7 Precursor MicroRNA” (THE JOHNS HOPKINS UNIVERSITY, priority 2012, published 2015).

What all share (assay type): cell-based, mouse
Experiment [1] has as its system GW182. The experiment in a line: Immunopurification of GW182: associated RNA, mRNAs and proteins. Here is the method:
Proteins and mRNAs associated with P-body component GW182 were isolated through immunoprecipitation of GW182 by modification of previously published protocols (Keene et al., 2006; Moser et al., 2009). Primary cultures of mouse hippocampal neurons (DIV 14-15) were incubated in serum-reduced medium (0.5% B27 supplement) for 2 hours, followed by […] Actinomycin-D for […] and mock or BDNF-stimulation for 30˜60 min. Cell lysates were harvested in polysomal lysis buffer (100 mM KCl, 5 mM MgCl2, 10 mM HEPES pH 7.0, 0.5% NP-40) with protease inhibitor cocktail and freshly added 20 mM EDTA, 1 mM DTT, 100 U/mL RNase inhibitor (RNaseOut, Invitrogen) and 400 μM Vanadyl ribonucleoside complexes (SIGMA). Lysates were centrifuged and the supernatants pre-cleared by one-hour incubation with recombinant protein G beads pre-washed in NT2 buffer (50 mM Tris-HCl pH 7.4, 150 mM NaCl, 1 mM MgCl2, 0.05% NP-40). Antibody coating of protein G beads was carried out with antiserum against GW182 (18033, gift of M. Fritzler) or control isotype-specific serum in NT2 buffer plus protease inhibitor for 4 hours after blocking with NT2 buffer plus 5% BSA and 1 mg/mL heparin for 1 hour. For immunoprecipitation (IP), equal amounts of lysate protein (2-5 mg) was incubated with antibody-coated beads and tumbled for 4 hours at 4° C., followed by washing. RNAs were recovered from GW182 immunoprecipitates by Tri-Reagent as described below. Recovered RNAs were resuspended in nuclease-free water, measured for RNA concentration, and immediately reverse transcribed into cDNA using a combination of random decamers and oligo(dT) primers. RT-qPCR was carried out as described below. To examine proteins co-immunoprecipitated with GW182, the washed IP beads were incubated in sample buffer at 95° C. for 5 minutes and subjected to SDS-PAGE electrophoresis and immunoblotting.

Experiment [2] deals with Dicer. Briefly: Immunoblotting for Dicer. Particulars: BDNF-stimulated neurons, Actinomycin-D. The procedure:
(§1) Primary cultures of mouse hippocampal neurons (DIV 14 15) were incubated in serum-reduced medium (0.5% B27 supplement) for 2 hours, followed by […] Actinomycin-D for 10-20 min. Bath application of BDNF (100 ng/mL) was for designated periods (5 min-2 hours). The cultures were washed 3 times and harvested on ice with lysis buffer (50 mM Hepes, 150 mM NaCl, 10% Glycerol, 1 mM EDTA, 1% Triton-X-100, 0.2% SDS) plus freshly added protease inhibitor cocktail (Roche) and PMSF. Protein concentration was determined by Bradford Assay. If required, lysates were treated with Lambda Protein Phosphatase according to manufacturer's instructions (New England Biolabs […]). Equal amounts of lysate protein were resolved on SDS-PAGE gels, and electrotransferred to PVDF membrane. […]

Experiment [3] concerns Lin28a. Briefly: Immunoblotting for Lin28a. Conditions: mature neurons, by 5 min following BDNF exposure. The procedure: as §1
In experiment [4] the test system is Let-7a. The experiment in a line: Northern blot of pre- and mature Let-7a. Conditions: BDNF-treated (30 min) neurons. The procedure:
(§2) Northern blots were carried out as described (Hwang et al., 2007), using the following LNA probes from Exiqon: Let-7a (5′ […] 3′; SEQ ID NO: 1), pre-Let-7a (5′ GTGGGTGTGACCCTA 3′; SEQ ID NO: 2), miR-17 (5′ […] 3′; SEQ ID NO: 3) and quantified by phosphoimaging.

Experiment [5] has as its system miR-17. The experiment in a line: Northern blot of control miRNA miR-17. Conditions: BDNF-treated (30 min) neurons. The procedure: as §2

B1: BDNF: brain-derived neurotrophic factor, a neurotrophin used to stimulate hippocampal neurons (protein, UniProt P23560 19-247, looked up)
Neurotrophic factor BDNF …: APMKEANIRGQGGLAYPGVRTHGTLESVNGPKAGSRGLTSLADTFEHVIEELLDEDQKVRPNEENNKDADLYTSRVMLSSQVPLEPPLLFLLEEYKNYLDAANMSMRVRRHSDPARRGELSVCDSISEWVTAADKKTAVDMSGGTVTVLEKVPVSKGQLKQYFYETKCNPMGYTKEGCRGIDKRHWNSQCRTTQSYVRALTMDSKKRIGWRFIRIDTSCVCTLTIKRGR
For the molecule B1, the “association of P-body components Ago2 and Dcp1a with GW182” value in experiment [1] (co-immunoprecipitation, BDNF 1 hour) is “increased the association”. In experiment [1] (control shRNA conditions), the “GW182-association of mRNAs whose translation is downregulated by BDNF (KCC2, Kv1.1)” value is listed as “promoted the GW182-association” and the “GW182-association of mRNAs whose translation is upregulated by BDNF (GluR1, CaMKIIu, Homer2)” value was “reduced the GW182-association”. In addition, in experiment [2], the Dicer levels entry is “marked transcription-independent increase in Dicer levels” and the “time of peak Dicer levels after stimulation” value is 5 to 20 min. The Lin28a protein entry in experiment [3] was “robust and rapid transcription-independent increase in Lin28a”. Further, the “pre-Let7 and mature Let-7 miRNA levels” value in experiment [4] is “significant decreases”. In experiment [5], the “mature miR-17 level” value is “modestly increased”.
